Laboratory results published in article PMC13083859.

Biological target: human muscarinic M3 receptor with C-terminal mCitrine (M3-mCit), wild type (human) (UniProt P20309)
Test: FRET or BRET; single-cell FRET between receptor-mCitrine and mTurq-Gγ2 of the co-expressed heterotrimer (Gαo or Gαq, Gβ1, Gγ2) in HEK293T cells permeabilized with 0.05% saponin for 2 min (GTP depletion), PTX-A co-expressed; room temperature; internal buffer pH 7.35; complex induced by 10 µM acetylcholine, its stability after wash-out quantified as area under the curve (AUC); complete dissociation by 1 µM GTPγS

Chain of UniProt P20309 (P20309 whole entry): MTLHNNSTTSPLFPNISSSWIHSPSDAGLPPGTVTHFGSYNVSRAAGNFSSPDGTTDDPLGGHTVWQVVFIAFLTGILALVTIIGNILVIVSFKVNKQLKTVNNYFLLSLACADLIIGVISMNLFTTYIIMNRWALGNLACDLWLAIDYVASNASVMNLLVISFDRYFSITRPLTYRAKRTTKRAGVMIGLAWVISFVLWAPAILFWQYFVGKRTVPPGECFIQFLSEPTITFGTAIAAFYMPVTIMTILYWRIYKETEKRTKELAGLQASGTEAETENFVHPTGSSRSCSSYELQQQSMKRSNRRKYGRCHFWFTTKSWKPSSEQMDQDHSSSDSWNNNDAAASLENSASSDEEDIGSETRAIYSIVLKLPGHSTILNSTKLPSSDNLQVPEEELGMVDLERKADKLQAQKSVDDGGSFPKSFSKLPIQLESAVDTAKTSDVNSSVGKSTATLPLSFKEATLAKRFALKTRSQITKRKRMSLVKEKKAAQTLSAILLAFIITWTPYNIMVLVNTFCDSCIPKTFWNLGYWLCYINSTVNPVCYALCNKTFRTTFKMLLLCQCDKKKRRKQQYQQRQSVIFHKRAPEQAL

In the case of “Go heterotrimer: PTX-insensitive Gαo, Gβ1-wt and mTurq-Gγ2 (from UniProt P09471 1-354; P62873 1-340; P59768 1-71) (complex)”, the AUC (area under the FRET curve after agonist wash-out) is reported as 30 a.u.
With “Gq heterotrimer: Gαq, Gβ1-wt and mTurq-Gγ2 (from UniProt P50148 1-359; P62873 1-340; P59768 1-71) (complex; other documents disagree on this pair)” the AUC (area under the FRET curve after agonist wash-out) was 106 a.u.
